Data as given in patent US20180155451A1 (published 2018).

T1: FcγRIIb extracellular domain with C-terminal His tag (human, UniProt P31994 43-217)
T1 construct: extracellular domain; also called FcgRIIb; 2b; not shown: His tag at the C terminus
T1 sequence (looked up): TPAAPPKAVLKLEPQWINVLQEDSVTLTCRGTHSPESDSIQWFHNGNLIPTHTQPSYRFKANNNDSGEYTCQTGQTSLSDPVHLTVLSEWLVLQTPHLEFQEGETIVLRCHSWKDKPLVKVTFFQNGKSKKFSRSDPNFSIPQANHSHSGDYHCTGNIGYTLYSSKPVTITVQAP

B1: GpH7-A5/GpH7-B3 variant G237_02A/GpL16-k0 (heterodimerized antibody, He Ab) (antibody, human IgG1, kappa)
heavy 1: not shown
heavy 2: not shown
light: DIVMTQSPLSLPVTPGEPASISCQASESLVHSNRNTYLHWYLQKPGQSPQLLIYKVSNRFSGVPDRFSGSGSGTDFTLKISRVEAEDVGVYYCSQNTHVPPTFGQGTKVEIERTVAAPSVFIFPPSDEQLKSGTASVVCLLNNFYPREAKVQWKVDNALQSGNSQESVTEQDSKDSTYSLSSTLTLSKADYEKHKVYACEVTHQGLSSPVTKSFNRGEC
notes: Anti-glypican-3 IgG1; the alteration is in the GpH7-B3 chain only; also called G237A
B2: GpH7-A5/GpH7-B3 variant G236_09D/GpL16-k0 (heterodimerized antibody, He Ab) (antibody, human IgG1, kappa)
heavy 1: not shown
heavy 2: not shown
light: B1 light
notes: Anti-glypican-3 IgG1; the alteration is in the GpH7-B3 chain only; also called G236D
B3: GpH7-A5/GpH7-B3 variant P238_11K/GpL16-k0 (heterodimerized antibody, He Ab) (antibody, human IgG1, kappa)
heavy 1: not shown
heavy 2: not shown
light: B1 light
notes: Anti-glypican-3 IgG1; the alteration is in the GpH7-B3 chain only; also called P238K
B4: GpH7-A5/GpH7-B3 variant P238_19Q/GpL16-k0 (heterodimerized antibody, He Ab) (antibody, human IgG1, kappa)
heavy 1: not shown
heavy 2: not shown
light: B1 light
notes: Anti-glypican-3 IgG1; the alteration is in the GpH7-B3 chain only; also called P238Q
B5: GpH7-A5/GpH7-B3 variant G237_13S/GpL16-k0 (heterodimerized antibody, He Ab) (antibody, human IgG1, kappa)
heavy 1: not shown
heavy 2: not shown
light: B1 light
notes: Anti-glypican-3 IgG1; the alteration is in the GpH7-B3 chain only; also called G237S
B6: GpH7-A5/GpH7-B3 variant P238_14T/GpL16-k0 (heterodimerized antibody, He Ab) (antibody, human IgG1, kappa)
heavy 1: not shown
heavy 2: not shown
light: B1 light
notes: Anti-glypican-3 IgG1; the alteration is in the GpH7-B3 chain only; also called P238T
B7: GpH7-A5/GpH7-B3 variant G237_19Q/GpL16-k0 (heterodimerized antibody, He Ab) (antibody, human IgG1, kappa)
heavy 1: not shown
heavy 2: not shown
light: B1 light
notes: Anti-glypican-3 IgG1; the alteration is in the GpH7-B3 chain only; also called G237Q
B8: GpH7-A5/GpH7-B3 variant G236_13S/GpL16-k0 (heterodimerized antibody, He Ab) (antibody, human IgG1, kappa)
heavy 1: not shown
heavy 2: not shown
light: B1 light
notes: Anti-glypican-3 IgG1; the alteration is in the GpH7-B3 chain only; also called G236S
B9: GpH7-A5/GpH7-B3 variant P238_09D/GpL16-k0 (heterodimerized antibody, He Ab) (antibody, human IgG1, kappa)
heavy 1: not shown
heavy 2: not shown
light: B1 light
notes: Anti-glypican-3 IgG1; the alteration is in the GpH7-B3 chain only; also called P238D
B10: GpH7-A5/GpH7-B3 variant L235_20W/GpL16-k0 (heterodimerized antibody, He Ab) (antibody, human IgG1, kappa)
heavy 1: not shown
heavy 2: not shown
light: B1 light
notes: Anti-glypican-3 IgG1; the alteration is in the GpH7-B3 chain only; also called L235W
B11: GpH7-A5/GpH7-B3 variant G237_04F/GpL16-k0 (heterodimerized antibody, He Ab) (antibody, human IgG1, kappa)
heavy 1: not shown
heavy 2: not shown
light: B1 light
notes: Anti-glypican-3 IgG1; the alteration is in the GpH7-B3 chain only; also called G237F
B12: GpH7-A5/GpH7-B3 variant P238_04F/GpL16-k0 (heterodimerized antibody, He Ab) (antibody, human IgG1, kappa)
heavy 1: not shown
heavy 2: not shown
light: B1 light
notes: Anti-glypican-3 IgG1; the alteration is in the GpH7-B3 chain only; also called P238F
B13: GpH7-A5/GpH7-B3 variant G236_10E/GpL16-k0 (heterodimerized antibody, He Ab) (antibody, human IgG1, kappa)
heavy 1: not shown
heavy 2: not shown
light: B1 light
notes: Anti-glypican-3 IgG1; the alteration is in the GpH7-B3 chain only; also called G236E
B14: GpH7-A5/GpH7-B3 variant S239_03V/GpL16-k0 (heterodimerized antibody, He Ab) (antibody, human IgG1, kappa)
heavy 1: not shown
heavy 2: not shown
light: B1 light
notes: Anti-glypican-3 IgG1; the alteration is in the GpH7-B3 chain only; also called S239V
B15: GpH7-A5/GpH7-B3 variant G237_06M/GpL16-k0 (heterodimerized antibody, He Ab) (antibody, human IgG1, kappa)
heavy 1: not shown
heavy 2: not shown
light: B1 light
notes: Anti-glypican-3 IgG1; the alteration is in the GpH7-B3 chain only; also called G237M
B16: GpH7-A5/GpH7-B3 variant G237_18N/GpL16-k0 (heterodimerized antibody, He Ab) (antibody, human IgG1, kappa)
heavy 1: not shown
heavy 2: not shown
light: B1 light
notes: Anti-glypican-3 IgG1; the alteration is in the GpH7-B3 chain only; also called G237N
B17: GpH7-A5/GpH7-B3 variant P238_10E/GpL16-k0 (heterodimerized antibody, He Ab) (antibody, human IgG1, kappa)
heavy 1: not shown
heavy 2: not shown
light: B1 light
notes: Anti-glypican-3 IgG1; the alteration is in the GpH7-B3 chain only; also called P238E
B18: GpH7-A5/GpH7-B3 variant P238_07I/GpL16-k0 (heterodimerized antibody, He Ab) (antibody, human IgG1, kappa)
heavy 1: not shown
heavy 2: not shown
light: B1 light
notes: Anti-glypican-3 IgG1; the alteration is in the GpH7-B3 chain only; also called P238I
B19: GpH7-A5/GpH7-B3 variant P238_13S/GpL16-k0 (heterodimerized antibody, He Ab) (antibody, human IgG1, kappa)
heavy 1: not shown
heavy 2: not shown
light: B1 light
notes: Anti-glypican-3 IgG1; the alteration is in the GpH7-B3 chain only; also called P238S
B20: GpH7-A5/GpH7-B3 variant S239_01G/GpL16-k0 (heterodimerized antibody, He Ab) (antibody, human IgG1, kappa)
heavy 1: not shown
heavy 2: not shown
light: B1 light
notes: Anti-glypican-3 IgG1; also called S239G
B21: GpH7-A5/GpH7-B3 variant P238_16H/GpL16-k0 (heterodimerized antibody, He Ab) (antibody, human IgG1, kappa)
heavy 1: not shown
heavy 2: not shown
light: B1 light
notes: Anti-glypican-3 IgG1; the alteration is in the GpH7-B3 chain only; also called P238H
B22: GpH7-A5/GpH7-B3 variant G237_16H/GpL16-k0 (heterodimerized antibody, He Ab) (antibody, human IgG1, kappa)
heavy 1: not shown
heavy 2: not shown
light: B1 light
notes: Anti-glypican-3 IgG1; the alteration is in the GpH7-B3 chain only; also called G237H

target: T2, FcγRIIIa extracellular domain with C-terminal His tag (human, UniProt P08637 17-208); experiment: SPR (Biacore), captured antibody, FcγR as analyte; relative to GpH7-A5/GpH7-B3/GpL16-k0 = 100
T2 construct: extracellular domain; also called FcgRIIIa; 3a; not shown: His tag at the C terminus
T2 sequence (P08637 17-208): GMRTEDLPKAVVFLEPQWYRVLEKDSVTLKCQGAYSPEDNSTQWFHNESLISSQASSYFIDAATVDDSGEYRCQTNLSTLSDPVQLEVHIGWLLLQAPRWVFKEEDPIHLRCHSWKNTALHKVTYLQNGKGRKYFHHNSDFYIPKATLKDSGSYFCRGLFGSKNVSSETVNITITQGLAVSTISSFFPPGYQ
Description: (§1) Analysis of interaction between objective antibody and the FcγR was carried out using Biacore T100 (GE Healthcare). HBS-EP+ (GE Healthcare) was used as the running buffer, and the measurement temperature was set to 25° C. Chips produced by immobilizing the antigen peptide by the amine coupling method to a Series S Sencor Chip CM5 (GE Healthcare), or alternatively, chips produced by allowing preliminarily biotinylated antigen peptides to interact with and immobilize onto a Series S Sensor Chip SA (certified) (GE Healthcare) were used. Antibodies of interest were captured onto an antigen peptide-immobilized chip, and allowed to interact to each FcγR diluted with running buffer. To regenerate and repeatedly use the chip, the antibodies captured on the chip were washed off by reacting 10 mM glycine-HCl, pH 1.5.
(§2) The FcγR-binding activity of each antibody was assessed primarily using as an indicator the FcγR-binding activity and dissociation constant for FcγR.

He/Con_3a (IIIa binding) | Binder
48.8 % of HeCon Ab | B1
71.2 % of HeCon Ab | B2
10.4 % of HeCon Ab | B3
55.8 % of HeCon Ab | B4
38.4 % of HeCon Ab | B5
28 % of HeCon Ab | B6
43.3 % of HeCon Ab | B7
64.8 % of HeCon Ab | B8
106 % of HeCon Ab | B9
76.4 % of HeCon Ab | B10
25.3 % of HeCon Ab | B11
46.7 % of HeCon Ab | B12
70.7 % of HeCon Ab | B13
76.6 % of HeCon Ab | B14
31.9 % of HeCon Ab | B15
20.3 % of HeCon Ab | B16
105 % of HeCon Ab | B17
27.8 % of HeCon Ab | B18
44.9 % of HeCon Ab | B19
76.2 % of HeCon Ab | B20
30.7 % of HeCon Ab | B21
17.2 % of HeCon Ab | B22

target: T1, FcγRIIb extracellular domain with …; experiment: as above
Description: as §1, §2

He/Con_2b (IIb binding) | Binder
124 % of HeCon Ab | B1
167 % of HeCon Ab | B2
18.1 % of HeCon Ab | B3
110 % of HeCon Ab | B4
111 % of HeCon Ab | B5
50.7 % of HeCon Ab | B6
108 % of HeCon Ab | B7
96.7 % of HeCon Ab | B8
221 % of HeCon Ab | B9
147 % of HeCon Ab | B10
149 % of HeCon Ab | B11
312 % of HeCon Ab | B12
110 % of HeCon Ab | B13
108 % of HeCon Ab | B14
130 % of HeCon Ab | B15
180 % of HeCon Ab | B16
232 % of HeCon Ab | B17
80 % of HeCon Ab | B18
70.4 % of HeCon Ab | B19
144 % of HeCon Ab | B20
115 % of HeCon Ab | B21
55.2 % of HeCon Ab | B22
